In patent US20240400614A1, “CLEAVABLE PEPTIDES AND METHODS OF USE THEREOF” (Bright Peak Therapeutics AG, priority 2023, published 2024):
Square brackets hold non-standard residues; d marks the D form. Ends that are not written are not given here. Tyr(3-NO2) = N[C@@H](Cc1ccc(O)c([N+](=O)[O-])c1)C(=O)O; Nle = CCCC[C@H](N)C(=O)O; 2Abz = Nc1ccccc1C(=O)O

What was measured:
Type in all cases: biochemical
uPA = uPA (Homo sapiens, UniProt P00749); assay: FRET peptide cleavage efficiency with uPA
matriptase = target: T1, matriptase (Homo sapiens, UniProt Q9Y5Y6); assay: FRET peptide cleavage efficiency with matriptase
T1 construct: purchased R&D Systems 3946-SEB
T1 sequence (Q9Y5Y6 615-855 limits assumed): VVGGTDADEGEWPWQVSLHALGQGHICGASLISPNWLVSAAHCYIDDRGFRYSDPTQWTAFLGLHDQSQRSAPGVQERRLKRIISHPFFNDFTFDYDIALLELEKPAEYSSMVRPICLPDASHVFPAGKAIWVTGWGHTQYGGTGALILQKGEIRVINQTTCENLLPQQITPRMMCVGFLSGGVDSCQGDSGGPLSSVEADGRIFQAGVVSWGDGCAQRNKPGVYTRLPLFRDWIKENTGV

MMP-2 = target: T2, MMP-2 (Homo sapiens, UniProt P08253); assay: FRET peptide cleavage efficiency with MMP-2
T2 construct: purchased SIGMA PF023
T2 sequence (P08253 110-660): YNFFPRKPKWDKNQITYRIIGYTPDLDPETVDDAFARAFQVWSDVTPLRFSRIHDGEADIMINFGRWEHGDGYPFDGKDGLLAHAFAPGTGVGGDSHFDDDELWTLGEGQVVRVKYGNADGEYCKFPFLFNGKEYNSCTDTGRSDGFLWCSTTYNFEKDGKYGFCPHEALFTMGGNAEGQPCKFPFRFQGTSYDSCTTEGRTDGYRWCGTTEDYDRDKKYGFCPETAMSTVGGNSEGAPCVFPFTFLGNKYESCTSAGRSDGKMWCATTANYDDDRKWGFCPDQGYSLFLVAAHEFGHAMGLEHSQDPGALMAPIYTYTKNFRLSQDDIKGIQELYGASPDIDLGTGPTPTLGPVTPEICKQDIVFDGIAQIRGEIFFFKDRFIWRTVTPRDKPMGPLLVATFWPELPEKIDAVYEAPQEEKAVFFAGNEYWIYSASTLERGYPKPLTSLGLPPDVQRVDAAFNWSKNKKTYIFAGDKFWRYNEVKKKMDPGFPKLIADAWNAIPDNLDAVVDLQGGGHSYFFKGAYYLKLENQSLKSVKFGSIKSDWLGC

MMP-7 = target: T3, MMP-7 (Homo sapiens, UniProt P09237); assay: FRET peptide cleavage efficiency with MMP-7 (standard pH 7.5; also pH 6.5)
T3 construct: purchased SIGMA CC1059
T3 sequence (P09237 95-267): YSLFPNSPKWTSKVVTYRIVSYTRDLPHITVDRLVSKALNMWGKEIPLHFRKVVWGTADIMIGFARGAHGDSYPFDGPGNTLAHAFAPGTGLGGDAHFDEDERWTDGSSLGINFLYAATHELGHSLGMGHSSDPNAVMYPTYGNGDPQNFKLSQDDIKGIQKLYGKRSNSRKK

MMP-9 = target: T4, MMP-9 (Homo sapiens, UniProt P14780); assay: FRET peptide cleavage efficiency with MMP-9 (standard pH 7.5; also pH 6.5)
T4 construct: purchased SIGMA PF024
T4 sequence (P14780 94-707): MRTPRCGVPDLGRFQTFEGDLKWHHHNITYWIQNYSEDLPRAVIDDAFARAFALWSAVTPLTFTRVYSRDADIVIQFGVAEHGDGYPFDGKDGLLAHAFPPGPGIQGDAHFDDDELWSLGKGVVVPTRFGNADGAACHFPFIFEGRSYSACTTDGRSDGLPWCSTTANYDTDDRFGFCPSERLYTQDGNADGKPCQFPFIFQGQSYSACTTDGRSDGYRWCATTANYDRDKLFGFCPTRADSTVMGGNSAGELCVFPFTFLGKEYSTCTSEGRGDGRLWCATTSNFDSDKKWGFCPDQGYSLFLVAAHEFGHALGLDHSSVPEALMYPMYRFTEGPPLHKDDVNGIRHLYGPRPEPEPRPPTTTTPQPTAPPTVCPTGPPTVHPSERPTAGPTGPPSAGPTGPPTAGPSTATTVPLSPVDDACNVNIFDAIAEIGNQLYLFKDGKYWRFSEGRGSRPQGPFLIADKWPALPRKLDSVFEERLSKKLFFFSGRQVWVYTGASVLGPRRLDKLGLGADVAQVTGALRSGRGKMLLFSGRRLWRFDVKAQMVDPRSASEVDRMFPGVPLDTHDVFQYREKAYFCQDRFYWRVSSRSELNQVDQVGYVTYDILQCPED

[1] = 200 uM linker, 1 ug/ml protease, 37° C., buffer A pH 8.5
[2] = 200 uM linker, 1 ug/ml protease, 37° C., buffer B pH 9.0
[3] = t = 15 min, 200 uM linker, 1 ug/ml protease, 37° C., buffer C pH 7.5
[4] = t = 60 min, 200 uM linker, 1 ug/ml protease, 37° C., buffer C pH 7.5
[5] = t = 120 min, 200 uM linker, 1 ug/ml protease, 37° C., buffer C pH 7.5
[6] = t = 60 min, standard conditions (Table 8)
[7] = t = 120 min, standard conditions (Table 8)
[8] = t = 15 min, standard conditions (Table 8)

Substance | % cleavage uPA t = 15 min (uPA; [1]) [%] | % cleavage uPA t = 60 min (uPA; [1]) [%] | % cleavage uPA t = 120 min (uPA; [1]) [%] | % cleavage Matriptase t = 15 min (matriptase; [2]) [%] | % cleavage Matriptase t = 60 min (matriptase; [2]) [%] | % cleavage Matriptase t = 120 min (matriptase; [2]) [%] | % cleavage MMP-2 t = 15 min (MMP-2; t = 15 min (Table 9)) [%] | % cleavage MMP-2 t = 15 min (MMP-2; [3]) [%] | % cleavage MMP-2 t = 60 min (MMP-2; t = 60 min (Table 9)) [%] | % cleavage MMP-2 t = 60 min (MMP-2; [4]) [%] | % cleavage MMP-2 t = 120 min (MMP-2; t = 120 min (Table 9)) [%] | % cleavage MMP-2 t = 120 min (MMP-2; [5]) [%] | % cleavage MMP-7 t = 15 min (MMP-7; t = 15 min (Table 9)) [%] | % cleavage MMP-7 t = 60 min (MMP-7; t = 60 min (Table 9)) [%] | % cleavage MMP-7 t = 120 min (MMP-7; t = 120 min (Table 9)) [%] | % cleavage MMP-9 t = 15 min (MMP-9; t = 15 min (Table 9)) [%] | % cleavage MMP-9 t = 60 min (MMP-9; t = 60 min (Table 9)) [%] | % cleavage MMP-9 t = 120 min (MMP-9; t = 120 min (Table 9)) [%] | % vcleavage uPA t = 15 min (uPA; standard conditions (Table 8)) [%] | % cleavage uPA t = 60 min (uPA; standard conditions (Table 8)) [%] | also measured
SGRPLGYFGKL ([2Abz]SGRPLGYFGKL[Tyr(3-NO2)]-NH2) [LNK056] | 0 | 0 | 0 | 0 | 0 | 0 | 75 | 75 | 100 | 100 | 100 | 100 | 0 | 0 | 0 | 32 | 100 | 100 | – | – | –
RGRRVANPLGYFGKL ([2Abz]RGRRVANPLGYFGKL[Tyr(3-NO2)]-NH2) [LNK058] | 1 | 5 | 10 | 88 | 100 | 100 | 68 | 68 | 100 | 100 | 100 | 100 | 0 | 0 | 0 | 31 | 97 | 100 | – | – | –
RGRKSPANLVG ([2Abz]RGRKSPANLVG[Tyr(3-NO2)]-NH2) [LNK034] | – | – | – | – | – | – | 92 | – | 100 | – | 100 | – | 32 | 89 | 100 | 100 | 100 | 100 | 0 | 0 | % cleavage uPA t = 120 min (uPA; standard conditions (Table 8)): 0%; % cleavage Matriptase t = 15 min (matriptase; standard conditions (Table 8)): 100%; % cleavage Matriptase t = 60 min (matriptase; standard conditions (Table 8)): 100%; % cleavage Matriptase t = 120 min (matriptase; standard conditions (Table 8)): 100%; % cleavage MMP-2 t = 60 min (MMP-2; [6]): 100%; % cleavage MMP-2 t = 120 min (MMP-2; [7]): 100%; % cleavage MMP-7 t = 15 min (MMP-7; [8]): 32%; % cleavage MMP-7 t = 60 min (MMP-7; [6]): 89%; % cleavage MMP-7 t = 120 min (MMP-7; [7]): 100%; % cleavage MMP-9 t = 15 min (MMP-9; [8]): 100%; % cleavage MMP-9 t = 60 min (MMP-9; [6]): 100%; % cleavage MMP-9 t = 120 min (MMP-9; [7]): 100%
RGRKSPY-Nle-LQG ([2Abz]RGRKSPY[Nle]LQG[Tyr(3-NO2)]-NH2) [LNK038] | – | – | – | – | – | – | 19 | – | 55 | – | 76 | – | 22 | 69 | 92 | 23 | 71 | 97 | 0 | 0 | % cleavage uPA t = 120 min (uPA; standard conditions (Table 8)): 0%; % cleavage Matriptase t = 15 min (matriptase; standard conditions (Table 8)): 100%; % cleavage Matriptase t = 60 min (matriptase; standard conditions (Table 8)): 100%; % cleavage Matriptase t = 120 min (matriptase; standard conditions (Table 8)): 100%; % cleavage MMP-2 t = 60 min (MMP-2; [6]): 55%; % cleavage MMP-2 t = 120 min (MMP-2; [7]): 76%; % cleavage MMP-7 t = 15 min (MMP-7; [8]): 22%; % cleavage MMP-7 t = 60 min (MMP-7; [6]): 69%; % cleavage MMP-7 t = 120 min (MMP-7; [7]): 92%; % cleavage MMP-9 t = 15 min (MMP-9; [8]): 23%; % cleavage MMP-9 t = 60 min (MMP-9; [6]): 71%; % cleavage MMP-9 t = 120 min (MMP-9; [7]): 97%
SGRVQPLVD (not fully specified (N-terminus, C-terminus)) [LNK047] | – | – | – | – | – | – | 2 | – | 5 | – | 9 | – | 20 | 65 | 88 | 1 | 2 | 4 | 1 | 1 | % cleavage uPA t = 120 min (uPA; standard conditions (Table 8)): 2%; % cleavage Matriptase t = 15 min (matriptase; standard conditions (Table 8)): 4%; % cleavage Matriptase t = 60 min (matriptase; standard conditions (Table 8)): 17%; % cleavage Matriptase t = 120 min (matriptase; standard conditions (Table 8)): 33%; % cleavage MMP-2 t = 60 min (MMP-2; [6]): 5%; % cleavage MMP-2 t = 120 min (MMP-2; [7]): 9%; % cleavage MMP-7 t = 15 min (MMP-7; [8]): 20%; % cleavage MMP-7 t = 60 min (MMP-7; [6]): 65%; % cleavage MMP-7 t = 120 min (MMP-7; [7]): 88%; % cleavage MMP-9 t = 15 min (MMP-9; [8]): 1%; % cleavage MMP-9 t = 60 min (MMP-9; [6]): 2%; % cleavage MMP-9 t = 120 min (MMP-9; [7]): 4%
SGRVLPLGMRA ([2Abz]SGRVLPLGMRA[Tyr(3-NO2)]-NH2) [LNK023] | 2 | 2 | 3 | 38 | 92 | 99 | – | 96 | – | 98 | – | 98 | – | – | – | – | – | – | – | – | –
SSRGPASNRRLPLGLAG ([2Abz]SSRGPASNRRLPLGLAG[Tyr(3-NO2)]-NH2) [LNK001] | 4 | 17 | 30 | 77 | 99 | 99 | – | 54 | – | 98 | – | 99 | – | – | – | – | – | – | – | – | –
SGRVLTLRKAALPLAM ([2Abz]SGRVLTLRKAALPLAM[Tyr(3-NO2)]-NH2) [LNK020] | 11 | 26 | 45 | 98 | 99 | 99 | – | 55 | – | 98 | – | 99 | – | – | – | – | – | – | – | – | –
SSRVFRKPANLAG ([2Abz]SSRVFRKPANLAG[Tyr(3-NO2)]-NH2) [LNK019] | 4 | 6 | 10 | 90 | 97 | 97 | – | 84 | – | 99 | – | 99 | – | – | – | – | – | – | – | – | –
SGRVLPANLVG ([2Abz]SGRVLPANLVG[Tyr(3-NO2)]-NH2) [LNK015] | 0 | 0 | 1 | 25 | 78 | 96 | – | 94 | – | 99 | – | 98 | – | – | – | – | – | – | – | – | –
